Test in all cases: SEC
A general note: SEC sorts molecules by how far they enter the pores of the column.

Test [1] deals with PahZ1Bfg, PahZ1 homolog from Brevifollis gellanilyticus (PahZ1-like domain fused to a CapA-like domain), residues 23-644 (Brevifollis gellanilyticus).
The target in test [2] is PahZ1_(KT-1), poly(aspartic acid) hydrolase PahZ1 from Sphingomonas sp. KT-1 (Sphingomonas sp. KT-1).
In test [3] the target is PahZ1_(Spyx), PahZ1 homolog from Sphingopyxis sp. Root1497, residues 21-313 (Sphingopyxis sp. Root1497).

In test [1], “PahZ1Bfg, PahZ1 homolog from Brevifollis gellanilyticus (PahZ1-like domain fused to a CapA-like domain), residues 23-644 (enzyme)” showed a stoichiometry N of 2.
Regarding “PahZ1_(KT-1), poly(aspartic acid) hydrolase PahZ1 from Sphingomonas sp. KT-1 (enzyme)”, the stoichiometry N in test [2] came to 2.
In turn, “PahZ1_(Spyx), PahZ1 homolog from Sphingopyxis sp. Root1497, residues 21-313 (enzyme)” registered a stoichiometry N in test [3] of 2.

Usually stoichiometry N stands for a count of units in the complex or per binding partner.

For the origin of these results see publication PMC13017698.
